According to PMC3505976:

T1: mIghmbp2hd-R3H (helicase core + R3H) (mouse, UniProt P40694 1-786)
T1 sequence: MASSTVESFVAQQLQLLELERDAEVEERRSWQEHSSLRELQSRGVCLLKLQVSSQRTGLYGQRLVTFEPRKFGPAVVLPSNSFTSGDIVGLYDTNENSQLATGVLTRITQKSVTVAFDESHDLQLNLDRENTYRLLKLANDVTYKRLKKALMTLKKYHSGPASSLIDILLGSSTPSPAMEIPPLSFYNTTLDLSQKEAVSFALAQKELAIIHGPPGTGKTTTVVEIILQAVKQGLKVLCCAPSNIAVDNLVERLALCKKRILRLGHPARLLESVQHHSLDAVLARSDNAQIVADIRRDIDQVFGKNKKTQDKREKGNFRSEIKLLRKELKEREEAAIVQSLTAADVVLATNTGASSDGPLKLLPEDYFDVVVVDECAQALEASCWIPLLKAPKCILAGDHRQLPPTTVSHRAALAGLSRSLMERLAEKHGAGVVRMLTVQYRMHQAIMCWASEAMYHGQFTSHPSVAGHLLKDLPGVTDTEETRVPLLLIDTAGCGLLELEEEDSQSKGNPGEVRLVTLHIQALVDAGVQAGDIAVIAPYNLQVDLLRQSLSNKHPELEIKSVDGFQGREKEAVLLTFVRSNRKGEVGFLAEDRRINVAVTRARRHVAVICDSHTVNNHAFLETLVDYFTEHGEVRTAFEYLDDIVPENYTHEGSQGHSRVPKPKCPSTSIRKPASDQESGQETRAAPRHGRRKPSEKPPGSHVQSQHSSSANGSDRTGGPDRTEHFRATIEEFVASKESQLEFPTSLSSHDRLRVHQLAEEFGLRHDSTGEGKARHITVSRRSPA

T2: hIghmbp2hd (helicase core) (human (Homo sapiens), UniProt P38935 1-652)
T2 sequence: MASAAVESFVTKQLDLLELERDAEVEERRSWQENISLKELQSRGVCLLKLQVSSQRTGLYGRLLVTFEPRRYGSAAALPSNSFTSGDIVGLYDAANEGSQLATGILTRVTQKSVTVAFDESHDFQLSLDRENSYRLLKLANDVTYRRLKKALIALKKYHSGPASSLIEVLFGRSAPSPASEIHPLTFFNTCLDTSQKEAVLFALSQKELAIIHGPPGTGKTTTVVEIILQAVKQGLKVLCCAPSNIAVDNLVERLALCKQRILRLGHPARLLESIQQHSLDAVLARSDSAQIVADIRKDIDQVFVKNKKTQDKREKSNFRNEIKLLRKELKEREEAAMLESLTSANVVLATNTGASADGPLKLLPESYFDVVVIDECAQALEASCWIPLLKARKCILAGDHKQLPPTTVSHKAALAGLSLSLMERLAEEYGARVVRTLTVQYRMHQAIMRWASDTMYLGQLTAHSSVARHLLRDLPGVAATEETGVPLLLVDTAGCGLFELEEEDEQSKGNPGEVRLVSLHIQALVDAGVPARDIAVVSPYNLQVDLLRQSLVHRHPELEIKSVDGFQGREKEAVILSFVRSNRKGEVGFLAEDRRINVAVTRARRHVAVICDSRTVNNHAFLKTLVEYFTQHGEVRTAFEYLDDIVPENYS


Columns and labels:
[1] = target: T1, mIghmbp2hd-R3H (helicase core + R3H); test: fluorescence anisotropy
[2] = target: T2, hIghmbp2hd (helicase core); test: fluorescence anisotropy
[3] = target: T2, hIghmbp2hd (helicase core); test: crystal structure

Binder | Kd [1] [nM] | Kd [2] [nM] | binding result [3]
UUUUUUUUUUUUUUU (ssRNA) [U15 ssRNA] | 107 ± 29 | 1080 ± 130 | –
AAAAAAAAAA (ssRNA) [A10 ssRNA] | – | – | binds
